Results reported in patent US20160052994A1.
One block for each substance: values may come before it.

Legend:
[1] = biological target: Type I collagen (Nitta Gelatin Inc., type I-A: porcine origin) (porcine); experiment: solid-phase binding assay on coated type I collagen, detection with anti-FLAG antibody M2
[2] = biological target: Gelatin (Sigma, G1890-100G: porcine origin) (porcine); experiment: solid-phase binding assay on coated gelatin, detection with anti-laminin α5 antibody 5D6
[3] = biological target: Type I collagen (Nitta Gelatin Inc., type I-A: porcine origin) (porcine); experiment: solid-phase binding assay on coated type I collagen, detection with anti-laminin α5 antibody 5D6

fold binding activity against the form with a single CBD (411β) [1]: > 10 fold
Substance: CBD-fused laminin 411E8 fragment 411βγ (from UniProt Q16363 629-1449)

fold binding activity against the form with a single CBD (211β) [1]: > 10 fold
Substance: CBD-fused laminin 211E8 fragment 211βγ (from UniProt P24043 1900-2722)

fold binding activity against the form with a single CBD (311β) [1]: > 10 fold
Substance: CBD-fused laminin 311E8 fragment 311βγ (from UniProt Q16787 579-1364)

fold binding activity against the form with a single CBD (521β) [1]: > 10 fold
Substance: CBD-fused laminin 521E8 fragment 521βγ (from UniProt O15230 2534-3327)

fold binding activity against the form with a single CBD (221β) [1]: > 10 fold
Substance: CBD-fused laminin 221E8 fragment 221βγ (from UniProt P24043 1900-2722)

fold binding activity against the monovalent forms [2]: 3 fold
concentration at which the binding activity reached saturation [3]: 10 nM
fold binding activity against the forms with a single CBD (monovalent forms) [3]: 10 fold
Substance: CBD-fused laminin 511E8 fragment CBD-E8(βγ) (from UniProt O15230 2534-3327)

fold binding activity against the form with a single CBD (421β) [1]: > 10 fold
Substance: CBD-fused laminin 421E8 fragment 421βγ (from UniProt Q16363 629-1449)

fold binding activity against the form with a single CBD (121β) [1]: > 10 fold
Substance: CBD-fused laminin 121E8 fragment 121βγ (from UniProt P25391 1878-2700)

fold binding activity against the form with a single CBD (111β) [1]: > 10 fold
Substance: CBD-fused laminin 111E8 fragment 111βγ (from UniProt P25391 1878-2700)

fold binding activity against the monovalent forms [2]: 3 fold
concentration at which the binding activity reached saturation [3]: 10 nM
fold binding activity against the forms with a single CBD (monovalent forms) [3]: 10 fold
Substance: CBD-fused laminin 511E8 fragment CBD-E8(αβγ)

fold binding activity against the form with a single CBD (321β) [1]: > 10 fold
Substance: CBD-fused laminin 321E8 fragment 321βγ (from UniProt Q16787 579-1364)
